Measurements published in patent US20200173986A1.

Experiments:
[1] = biological target: endogenous SNAP25 in total cell lysate; assay: sandwich ELISA with total cell lysate, negative control
[2] = biological target: endogenous SNAP25 in total cell lysate; assay: as above; remark: listed apart in the source
[3] = biological target: endogenous SNAP25 in total cell lysate; assay: as above; remark: listed apart in the source
[4] = biological target: endogenous SNAP25 in total cell lysate; assay: sandwich ELISA with total cell lysate, positive control
[5] = biological target: endogenous SNAP25 in total cell lysate; assay: as above; remark: listed apart in the source
[6] = biological target: endogenous SNAP25 in total cell lysate; assay: as above; remark: listed apart in the source

Chain of endogenous SNAP25 in total cell lysate (P60879 whole entry): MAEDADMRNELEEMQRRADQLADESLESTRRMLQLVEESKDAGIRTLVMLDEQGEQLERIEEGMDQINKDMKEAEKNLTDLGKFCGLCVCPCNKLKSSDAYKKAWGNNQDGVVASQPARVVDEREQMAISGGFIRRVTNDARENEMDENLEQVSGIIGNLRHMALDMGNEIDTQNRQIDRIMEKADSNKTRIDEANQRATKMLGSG

Substance | ELISA signal (A450) [1] | ELISA signal (A450) [2] | ELISA signal (A450) [3] | ELISA signal (A450) [4] | ELISA signal (A450) [5] | ELISA signal (A450) [6]
NC | 0.125 | 0.27 | 0.213 |  |  | 
PC |  |  |  | 2.5 | 3.49 | 2.77
